# Patent US20240316154A1 (Eli Lilly, published 2024)
# Positions count from the first letter of the chain named. Names may count otherwise.
# B1: VHH moiety 20 (MC6.1C22-P103) (VHH)
# VHH: EVQLLESGGGLVQPGGSLRLSCAASGRYIDETAVAWFRQAPGKEREFVAGIGGGVDITYYADSVKGRFTISRDNSKNTLYLQMNSLRPEDTAVYYCAARPGRELITSKVADLYPYWGQGTLVTVSS
# notes: name printed without the new residue
# B2: VHH moiety 23 (MC6.1C22-L104E) (VHH)
# VHH: B1 VHH with E103P, L104E
# B3: VHH moiety 27 (MC6.1C22-S107E) (VHH)
# VHH: B1 VHH with E103P, S107E
# B4: VHH moiety 25 (MC6.1C22-L104Q) (VHH)
# VHH: B1 VHH with E103P, L104Q
# B5: VHH moiety 14 (MC6.1C22-Y59Q) (VHH)
# VHH: B1 VHH with Y59Q, E103P
# B6: VHH moiety 24 (MC6.1C22-L104G) (VHH)
# VHH: B1 VHH with E103P, L104G
# B7: VHH moiety 13 (MC6.1C22-Y59E) (VHH)
# VHH: B1 VHH with Y59E, E103P
# B8: VHH moiety 26 (MC6.1C22-L104T) (VHH)
# VHH: B1 VHH with E103P, L104T
# B9: VHH moiety 12 (MC6.1C22-Y59A) (VHH)
# VHH: B1 VHH with Y59A, E103P
# B10: VHH moiety 16 (MC6.1C22-Y59T) (VHH)
# VHH: B1 VHH with Y59T, E103P
# B11: VHH moiety 15 (MC6.1C22-Y59S) (VHH)
# VHH: B1 VHH with Y59S, E103P
# B12: VHH moiety 11 (MC6.1C22-157Q) (VHH)
# VHH: B1 VHH with I57Q, E103P
# notes: name printed as 157Q
# B13: VHH moiety 18 (MC6.1C22-R102Q) (VHH)
# VHH: B1 VHH with R102Q, E103P
# B14: VHH moiety 10 (MC6.1C22-157E) (VHH)
# VHH: B1 VHH with I57E, E103P
# notes: name printed as 157E
# B15: VHH moiety 19 (MC6.1C22-R102S) (VHH)
# VHH: B1 VHH with R102S, E103P
# B16: VHH moiety 4 (MC6.1C80.43) (VHH)
# VHH: B1 VHH with E44G, E103P
# B17: VHH moiety 17 (MC6.1C22-R102K) (VHH)
# VHH: B1 VHH with R102K, E103P
# B18: VHH moiety 8 (MC6.1C22-G26Y) (VHH)
# VHH: B1 VHH with G26Y, E103P
# B19: VHH moiety 21 (MC6.1C22-P103Q) (VHH)
# VHH: B1 VHH with E103Q
# B20: VHH moiety 9 (MC6.1C22-R27A) (VHH)
# VHH: B1 VHH with R27A, E103P
# B21: VHH moiety 39 (MC6.1C90.43) (VHH)
# VHH: B1 VHH with E44G, A97G, E103P
# B22: VHH moiety 22 (MC6.1C22-P103S) (VHH)
# VHH: B1 VHH with E103S
# B23: VHH moiety 40 (MC6.1C95.43) (VHH)
# VHH: B1 VHH with E44G, A97G, A98T, E103P
# Biological target: T1, Cynomolgus monkey serum albumin (cynomolgus monkey, UniProt A2V9Z4 25-608)
# T1 construct: bought; immobilised on a CM5 chip by amine coupling; also called Cyno SA
# Experiment: SPR, SA on chip, 25 C
row,binding result,Binder
1,no binding (tested: 300 nM),B1
2,no binding (tested: 300 nM),B2
3,no binding (tested: 300 nM),B3
4,no binding (tested: 300 nM),B4
5,no binding (tested: 300 nM),B5
6,no binding (tested: 300 nM),B6
7,no binding (tested: 300 nM),B7
8,no binding (tested: 300 nM),B8

# Biological target: T2, Mouse serum albumin (mouse, UniProt P07724 25-608)
# T2 construct: bought; immobilised on a CM5 chip by amine coupling; also called Mouse SA
# Experiment: SPR, SA on chip, 25 C
row,binding result,Binder
1,no binding (tested: 300 nM),B9
2,no binding (tested: 300 nM),B10
3,no binding (tested: 300 nM),B11
4,no binding (tested: 300 nM),B1
5,no binding (tested: 300 nM),B12
6,no binding (tested: 300 nM),B2
7,no binding (tested: 300 nM),B3
8,no binding (tested: 300 nM),B5
9,no binding (tested: 300 nM),B6
10,no binding (tested: 300 nM),B7
11,no binding (tested: 300 nM),B8

# Biological target: T3, Rat serum albumin (rat, UniProt P02770 25-608)
# T3 construct: bought; immobilised on a CM5 chip by amine coupling; also called Rat SA
# Experiment: SPR, SA on chip, 25 C
row,binding result,Binder
1,no binding (tested: 300 nM),B9
2,no binding (tested: 300 nM),B10
3,no binding (tested: 300 nM),B11
4,no binding (tested: 300 nM),B1
5,no binding (tested: 300 nM),B12
6,no binding (tested: 300 nM),B2
7,no binding (tested: 300 nM),B3
8,no binding (tested: 300 nM),B5
9,no binding (tested: 300 nM),B6
10,no binding (tested: 300 nM),B7
11,no binding (tested: 300 nM),B8

# Biological target: T4, Pig serum albumin (pig, UniProt P08835 25-607)
# T4 construct: bought; immobilised on a CM5 chip by amine coupling; also called Pig SA
# Experiment: SPR, SA on chip, 25 C
row,binding result,Binder
1,no binding (tested: 300 nM),B9
2,no binding (tested: 300 nM),B10
3,no binding (tested: 300 nM),B11
4,no binding (tested: 300 nM),B1
5,no binding (tested: 300 nM),B12
6,no binding (tested: 300 nM),B2
7,no binding (tested: 300 nM),B3
8,no binding (tested: 300 nM),B5
9,no binding (tested: 300 nM),B6
10,no binding (tested: 300 nM),B7
11,no binding (tested: 300 nM),B8

# Biological target: T5, Dog serum albumin (dog, UniProt P49822 25-608)
# T5 construct: bought; immobilised on a CM5 chip by amine coupling; also called Dog SA
# Experiment: SPR, SA on chip, 25 C
row,binding result,Binder
1,no binding (tested: 300 nM),B9
2,no binding (tested: 300 nM),B11
3,no binding (tested: 300 nM),B12
4,no binding (tested: 300 nM),B2
5,no binding (tested: 300 nM),B3
6,no binding (tested: 300 nM),B5
7,no binding (tested: 300 nM),B6
8,no binding (tested: 300 nM),B7
9,no binding (tested: 300 nM),B8

# Biological target: T6, Cow serum albumin (cow, UniProt P02769 25-607)
# T6 construct: bought; immobilised on a CM5 chip by amine coupling; also called Cow SA
# Experiment: SPR, SA on chip, 25 C
row,binding result,Binder
1,no binding (tested: 300 nM),B9
2,no binding (tested: 300 nM),B10
3,no binding (tested: 300 nM),B13
4,no binding (tested: 300 nM),B14
5,no binding (tested: 300 nM),B11
6,no binding (tested: 300 nM),B15
7,no binding (tested: 300 nM),B1
8,no binding (tested: 300 nM),B12
9,no binding (tested: 300 nM),B3
10,no binding (tested: 300 nM),B4
11,no binding (tested: 300 nM),B5
12,no binding (tested: 300 nM),B7
13,no binding (tested: 300 nM),B8

# Biological target: T7, Human serum albumin (human, UniProt P02768 25-609)
# T7 construct: bought; immobilised on a CM5 chip by amine coupling; also called Human SA
# Experiment: SPR, SA on chip, VHH 300 nM, 25 C
# Procedure: (§1) Immobilization of SA to a Series S Sensor Chip CM5 surface is performed according to the manufacturer's instructions (amine coupling kit BR-1000-50). […] Human SA is obtained from Sigma Aldrich (St. Louis, MO; Cat. No. A8763). […] Mouse SA is obtained from Sigma Aldrich (Cat. No. A3559). Rat SA is obtained from Sigma Aldrich (Cat. No. A4538). Pig SA is obtained from Sigma Aldrich (Cat. No. A4414). […] Cow SA is obtained from Sigma Aldrich (Cat. No. A7030). The various SAs are covalently immobilized through free amines onto a carboxymethyl dextran-coated sensor chip CM5 targeting a surface density of average approximately 77 (58-98) RU. Excess reactive groups on the surfaces (flow cell 1 and 2) are deactivated by injecting 70 μL of 1 M ethanolamine hydrochloride-NaOH, pH 8.5, at 10 μL/min.
# (§2) VHH moieties are diluted in HBS-EP+buffer (10 mM HEPES, pH 7.6, 150 mM NaCl, 3 mM EDTA, and 0.05% Polysorbate 20) at concentrations of 300 nM. 150 μL of sample is individually injected sequentially across the immobilized SAs surface and is dissociated for 600 sec at a flow rate of 50 L/min at 25 C. […] The resulting sensorgrams are analyzed using Biacore 8K Insight Evaluation Software (version 2.0.15.12933) to calculate the dissociation rate (kd).
row,koff,Binder
1,0.00021 s⁻¹,B16
2,0.011 s⁻¹,B9
3,0.0039 s⁻¹,B10
4,0.0076 s⁻¹,B13
5,0.0015 s⁻¹,B17
6,0.0058 s⁻¹,B11
7,0.0045 s⁻¹,B15
8,0.001 s⁻¹,B18
9,0.0025 s⁻¹,B19
10,0.0092 s⁻¹,B1
11,0.0074 s⁻¹,B12
12,0.0012 s⁻¹,B20
13,0.014 s⁻¹,B3
14,0.013 s⁻¹,B5
15,9.4e-05 s⁻¹,B21
16,0.0028 s⁻¹,B22
17,0.00014 s⁻¹,B23

# Biological target: T1, Cynomolgus monkey serum albumin
# Experiment: SPR, SA on chip, VHH 300 nM, 25 C
# Procedure: as §1, §2
row,koff,Binder
1,0.00053 s⁻¹,B16
2,0.015 s⁻¹,B10
3,0.0072 s⁻¹,B13
4,0.0022 s⁻¹,B17
5,0.0073 s⁻¹,B15
6,0.003 s⁻¹,B18
7,0.014 s⁻¹,B19
8,0.0032 s⁻¹,B20
9,0.0006 s⁻¹,B21
10,0.014 s⁻¹,B22
11,0.00072 s⁻¹,B23

# Biological target: T2, Mouse serum albumin
# Experiment: SPR, SA on chip, VHH 300 nM, 25 C
# Procedure: as §1, §2
row,koff,Binder
1,0.0043 s⁻¹,B16
2,0.01 s⁻¹,B17
3,0.015 s⁻¹,B15
4,0.0032 s⁻¹,B18
5,0.013 s⁻¹,B19
6,0.013 s⁻¹,B20
7,0.0056 s⁻¹,B21
8,0.01 s⁻¹,B22
9,0.0054 s⁻¹,B23

# Biological target: T3, Rat serum albumin
# Experiment: SPR, SA on chip, VHH 300 nM, 25 C
# Procedure: as §1, §2
row,koff,Binder
1,0.0033 s⁻¹,B16
2,0.014 s⁻¹,B13
3,0.0081 s⁻¹,B17
4,0.015 s⁻¹,B15
5,0.0075 s⁻¹,B18
6,0.011 s⁻¹,B19
7,0.011 s⁻¹,B20
8,0.0038 s⁻¹,B21
9,0.01 s⁻¹,B22
10,0.0053 s⁻¹,B23

# Biological target: T4, Pig serum albumin
# Experiment: SPR, SA on chip, VHH 300 nM, 25 C
# Procedure: as §1, §2
row,koff,Binder
1,0.0057 s⁻¹,B16
2,0.013 s⁻¹,B17
3,0.014 s⁻¹,B15
4,0.0092 s⁻¹,B18
5,0.01 s⁻¹,B19
6,0.012 s⁻¹,B20
7,0.0065 s⁻¹,B21
8,0.011 s⁻¹,B22
9,0.0058 s⁻¹,B23

# Biological target: T5, Dog serum albumin
# Experiment: SPR, SA on chip, VHH 300 nM, 25 C
# Procedure: as §1, §2
row,koff,Binder
1,0.0017 s⁻¹,B16
2,0.015 s⁻¹,B13
3,0.0082 s⁻¹,B17
4,0.014 s⁻¹,B15
5,0.0022 s⁻¹,B18
6,0.0081 s⁻¹,B19
7,0.011 s⁻¹,B20
8,0.0021 s⁻¹,B21
9,0.0074 s⁻¹,B22
10,0.0021 s⁻¹,B23

# Biological target: T6, Cow serum albumin
# Experiment: SPR, SA on chip, VHH 300 nM, 25 C
# Procedure: as §1, §2
row,koff,Binder
1,0.015 s⁻¹,B17
2,0.015 s⁻¹,B18
